Data from the Human Domainome abundance scans (Beltran et al. 2025).

B1: Triacylglycerol hydrolase DDHD2, residues 389 to 447; numbered along this chain, O94830 (parent)
chain: TLEEDLKKLQLSEFFDIFEKEKVDKEALALCTDRDLQEIGIPLGPRKKILNYFSTRKNS

Variants of: B1
Assay: abundance fitness (aPCA) (normalised: wild type 0, dead -1); higher = more abundant; growth selection in yeast, the domain comes from the species named
Conditions: Homo sapiens

Abundance fitness: each site, then its substitutions
G40: L -1.01, W -1.23, K -0.651, V -0.689, H -0.502, Q -0.216, R -0.411, Y -1.2, E -0.556, I -0.839, F -0.865, A -0.65, T -0.67, C -0.573, N -0.253, D -0.572
F53: E 0.221, T -0.247, M 0.023, Q -0.118, C -0.029, I -0.085, A -0.282, L -0.324, H -0.285, D -0.03, K 0.031, N -0.073, R -0.323, G -0.213, V -0.363, W -0.38, S -0.237, Y -0.027
T55: L -0.072, I 0.122, F -0.482, P -0.079, E 0.214, A 0.058, K 0.178, N 0.166, Q 0.006, V -0.152, D -0.067, G 0.007, H -0.146, S -0.007, Y -0.159, C 0.041, W -0.295
I49: S -0.046, Q -0.307, P -0.34, N -0.589, A -0.244, T -0.301, G -0.593, V -0.215, L -0.077, H -0.07, R -0.489, D -0.125, M -0.09, Y -0.946, E -0.052, C -0.33, K -0.467, W -0.477, F -0.765
G44: P -0.079, V 0.375, M 0.06, I 0.418, S 0.167, K 0.18, E 0.574, A 0.35, D 0.342, Y -0.122, F -0.151, H 0.101, R -0.056, L 0.1, W -0.275, C -0.176, Q 0.333, N 0.041
K57: F -0.224, Q -0.076, V -0.175, T -0.155, L -0.219, G -0.031, W -0.525, A -0.102, N -0.287, H -0.291, S -0.115, Y -0.244, M 0.067, I -0.075, C -0.269
Y52: R -0.237, M -0.21, T -0.172, I -0.387, S -0.15, N 0.151, F 0.172, V -0.26, W -0.089, C -0.459, A -0.08, L -0.354, E -0.075, K -0.3, D -0.088, G -0.34, P -0.313, Q 0.123, H 0.231
P45: A 0.615, E 0.244, D 0.017, M 0.019, L -0.496, N -0.274, V 0.411, F -0.144, R -0.716, G -0.168, T -0.031, W -1.26, Y -0.426, K -0.285, H -0.261, C -0.205, Q 0.188, S -0.032
I39: V -0.052, T -0.336, Q -0.146, N -0.249, W 0.613, R -0.008, S -0.364, Y 0.548
R56: P 0.084, M 0.095, S -0.027, H -0.207, C -0.065, V 0.035, Y 0.019, D 0.05, L -0.086, F -0.074, K -0.143, W -0.1, A 0.134, T 0.033, E 0.123, N -0.236, Q 0.143, G -0.105
S59: D 0.23, A -0.235, E 0.075, F 0.03, G -0.151, C -0.058
S54: V -0.409, Q 0.055, K -0.071, Y -0.443, E -0.033, C -0.285, M 0.17, G -0.113, L -0.306, H -0.208, D -0.146, T -0.097, R -0.122, I -0.146, N -0.152, W -0.471, P -0.309
L43: T 0.543, F 0.313, Y 0.473, S 0.617, R 0.512, G 0.231, N 0.295, W 0.16, H 0.519, E 0.725, I 0.496, Q 0.621, C 0.47, V 0.48, M 0.298
R46: G -0.107, T -0.224, P -0.628, M -0.431, V -0.52, N -0.152, I -0.163, C -0.172, S -0.058, K -0.338, Q -0.243, E -0.217, L -0.744, D -0.242, W -1.27, Y -0.848, A 0.45
P42: N -0.35, M -0.649, L -0.958, Q -0.393, C -0.842, H -1.06, S -0.493, E -0.213, Y -0.83, V -1.01, G -0.587, T -0.839, A -0.518, K -0.737, F -1.17, R -0.872
N51: M 0.084, R 0.042, E 0.18, W -0.384, T 0.119, L -0.185, D 0.209, K 0.044, V -0.729, I -0.93, Q 0.166, G 0.061, P -0.37, H -0.148, C -0.323, A 0.151, Y -0.475, S 0.14
L50: M -0.209, G -0.291, F -0.008, D 0.14, N -0.483, T -0.209, K -0.218, C -0.215, H -0.087, Q -0.345, I 0.096, A -0.415, R -0.247, W -0.585, P -0.401
N58: Q -0.236, Y -0.08, E 0.078, H -0.377, V -0.015, M 0.208, L -0.116, C -0.252, T -0.049, W -0.373, A -0.193, P -0.199, F -0.422, R -0.332
K48: F -0.457, W -0.946, S -0.075, D -0.184, Y -0.566, M 0.146, E 0.036, C -0.408, L -0.007, A 0.106, N -0.344, R 0.088, V 0.244, H -0.213, P -0.494, T 0.374, I 0.104, G -0.698
I41: F -0.888, Y -0.689, C -0.425, S -0.168, N -0.837, D -0.384, R -0.289, V 0.003, M 0.134, A -0.433, P -0.417, E -0.13, H -0.31, Q -0.144, L 0.069, W -0.831, G -0.323
K47: H -0.376, Y -0.524, A 0.296, M 0.58, W -0.368, N 0.254, S 0.225, L -0.087, G 0.101, P -0.627, C 0.136, F -0.772, Q 0.492, R -0.065, I 0.193
